We go through 5 molecules from patent US20130028888A1 (AERES BIOMEDICAL, published 2013).

The target in assay [1] is T1, human CD22 expressed on the cell surface (human, UniProt P20273 20-847).
T1 construct: whole, on cells; One entry covers all cell-surface formats (BHK-CD22, CHO, COS, Daudi, human B cells); also called hCD22; BHK-CD22
Nature of the assay: cell ELISA on BHK cells expressing human CD22, COS-7 supernatant, OD 655 nm. In general terms: ELISA stands for enzyme-linked immunosorbent assay.

The target in assay [2] is T1, human CD22 expressed on the cell surface. Nature of the assay: cell ELISA on BHK cells expressing human CD22, OD 655 nm.
The target is the same in assay [3]. Nature of the assay: BHK-CD22 cell ELISA.
Assay [4] has the same target. As to the kind of experiment: cell ELISA on BHK cells expressing human CD22, goat anti-mouse Ig-HRP, OD 450 nm. The source says: The BHK-CD22 binding assay was used to test the binding activity of the chHB227 antibody in the transiently transformed COS 7 culture supernatants. A goat anti-human Ig-HRP conjugate (Sigma Chemicals) was used to detect binding of chHB22.7 mAb while a goat anti-mouse Ig-HRP conjugate (Southern Biotechnology) was used to detect binding of the parental mouse HB22.7 mAb. The bound HRP conjugates were exposed to the substrate o-phenyldiamine (OPD) and the resulting products detected at 450 nm.

Changes are numbered by the printed parent chain.

B1: humanized antibody HB227RHF + HB227RKC (antibody, human IgG1, V domains shown)
VH: QVQLQESGPALVKPTQTLTLTCTVSGFSLSDYGVNWIRQPPGKALEWLGIIWGDGRTDYNSALKSRLSISKDNSKNQVVLRMTNVDPVDTATYFCARAPGNRAMEYWGQGTVVTVSS
VL: DIVMTQSPSSLSASVGDRVTITCKASQSVTNDVAWYQQKPGKAPKLLIYYASNRYTGVPDRFSGSGYGTDFTLTISSLQPEDFATYFCQQDYRSPWTFGGGTKVEIKR
notes: Human IgG1/kappa constants; COS-7 supernatant; also called RHF+RKC; humanized (RHF+RKC) antibody
For B1, in assay [1], the “EC50 (read off the curve)” value is around 0.2 µg/mL.

B2: chimeric HB22.7 antibody chHB227 (chH + chL) (antibody, human IgG1, V domains shown)
VH: QVQLKESGPGLVAPSQSLSITCTVSGFSLSDYGVNWVRQIPGKGLEWLGIIWGDGRTDYNSALKSRLNISKDNSKSQVFLKMNSLKADDTARYYCARAPGNRAMEYWGQGTSVTVS
VL: SIVMTQTPKFLLVSAGDRITLTCKASQSVTNDVAWYQQKPGQSPKLLIYYASNRYTGVPDRFTGSGYGTDFTFTISTVQAEDLAVYFCQQDYRSPWTFGGGTKLEI
notes: Mouse HB22.7 variable regions on human IgG1 and kappa constant regions (vectors pG1D20, pKN10); Transient COS-7 supernatant; also called CH+CK; fully chimeric antibody
B2: the “EC50 (read off the curve)” value is around 0.1 µg/mL in assay [1] and around 0.3 µg/mL in assay [2].

B3: HB227RHC heavy chain + chimeric HB22.7 light chain (chL) (antibody, human IgG1, V domains shown)
VH: B1 VH with V24F
VL: B2 VL
notes: Human IgG1/kappa constants; COS-7 supernatant; also called RHC+chL
On to B3, for which the “fold binding relative to chimeric light chain with HB227RHB” value in assay [3] was around 2 fold.

B4: parental mouse monoclonal anti-CD22 antibody HB22.7 (antibody, V domains shown)
VH: B2 VH
VL: B2 VL
notes: Mouse hybridoma antibody (ATCC HB11347); Labelled with Alexa-fluor 488 or 647 in some cell assays; also called murine HB22.7; mouse HB22.7
For B4, in assay [4], the “EC50 (read off the curve)” value was around 0.08 µg/mL.

B5: HB227RHF heavy chain + chimeric HB22.7 light chain (chL) (antibody, human IgG1, V domains shown)
VH: B1 VH
VL: B2 VL
notes: Human IgG1/kappa constants; COS-7 supernatant; also called HB227RHF+chL; RHF+chL
As to B5, in assay [1], the “EC50 (read off the curve)” value is around 0.1 µg/mL.

The EC50 (read off the curve) is the concentration giving half of the maximal effect.
